From patent US20180155451A1 (published 2018)

B1: GpH7-A5/GpH7-B3 variant L328_04F/GpL16-k0 (antibody, human IgG1, kappa)
heavy 1: not shown
heavy 2: not shown
light: DIVMTQSPLSLPVTPGEPASISCQASESLVHSNRNTYLHWYLQKPGQSPQLLIYKVSNRFSGVPDRFSGSGSGTDFTLKISRVEAEDVGVYYCSQNTHVPPTFGQGTKVEIERTVAAPSVFIFPPSDEQLKSGTASVVCLLNNFYPREAKVQWKVDNALQSGNSQESVTEQDSKDSTYSLSSTLTLSKADYEKHKVYACEVTHQGLSSPVTKSFNRGEC
notes: heterodimerized IgG1, mutation in one H chain only; also called He Ab
B2: GpH7-A5/GpH7-B3 variant L328_07I/GpL16-k0 (antibody, human IgG1, kappa)
heavy 1: not shown
heavy 2: not shown
light: B1 light
notes: as for B1
B3: GpH7-A5/GpH7-B3 variant N325_20W/GpL16-k0 (antibody, human IgG1, kappa)
heavy 1: not shown
heavy 2: not shown
light: B1 light
notes: as for B1
B4: GpH7-A5/GpH7-B3 variant N325_08L/GpL16-k0 (antibody, human IgG1, kappa)
heavy 1: not shown
heavy 2: not shown
light: B1 light
notes: as for B1
B5: GpH7-A5/GpH7-B3 variant N325_01G/GpL16-k0 (antibody, human IgG1, kappa)
heavy 1: not shown
heavy 2: not shown
light: B1 light
notes: as for B1
B6: GpH7-A5/GpH7-B3 variant N325_13S/GpL16-k0 (antibody, human IgG1, kappa)
heavy 1: not shown
heavy 2: not shown
light: B1 light
notes: as for B1
B7: GpH7-A5/GpH7-B3 variant N325_06M/GpL16-k0 (antibody, human IgG1, kappa)
heavy 1: not shown
heavy 2: not shown
light: B1 light
notes: as for B1
B8: GpH7-A5/GpH7-B3 variant P331_07I/GpL16-k0 (antibody, human IgG1, kappa)
heavy 1: not shown
heavy 2: not shown
light: B1 light
notes: as for B1
B9: GpH7-A5/GpH7-B3 variant N325_09D/GpL16-k0 (antibody, human IgG1, kappa)
heavy 1: not shown
heavy 2: not shown
light: B1 light
notes: as for B1
B10: GpH7-A5/GpH7-B3 variant P331_04F/GpL16-k0 (antibody, human IgG1, kappa)
heavy 1: not shown
heavy 2: not shown
light: B1 light
notes: as for B1
B11: GpH7-A5/GpH7-B3 variant L328_15Y/GpL16-k0 (antibody, human IgG1, kappa)
heavy 1: not shown
heavy 2: not shown
light: B1 light
notes: as for B1
B12: GpH7-A5/GpH7-B3 variant N325_07I/GpL16-k0 (antibody, human IgG1, kappa)
heavy 1: not shown
heavy 2: not shown
light: B1 light
notes: as for B1
B13: GpH7-A5/GpH7-B3 variant P331_10E/GpL16-k0 (antibody, human IgG1, kappa)
heavy 1: not shown
heavy 2: not shown
light: B1 light
notes: as for B1
B14: GpH7-A5/GpH7-B3 variant N325_03V/GpL16-k0 (antibody, human IgG1, kappa)
heavy 1: not shown
heavy 2: not shown
light: B1 light
notes: as for B1
B15: GpH7-A5/GpH7-B3 variant L328_09D/GpL16-k0 (antibody, human IgG1, kappa)
heavy 1: not shown
heavy 2: not shown
light: B1 light
notes: as for B1
B16: GpH7-A5/GpH7-B3 variant L328_10E/GpL16-k0 (antibody, human IgG1, kappa)
heavy 1: not shown
heavy 2: not shown
light: B1 light
notes: as for B1
B17: GpH7-A5/GpH7-B3 variant P331_03V/GpL16-k0 (antibody, human IgG1, kappa)
heavy 1: not shown
heavy 2: not shown
light: B1 light
notes: as for B1
B18: GpH7-A5/GpH7-B3 variant P331_06M/GpL16-k0 (antibody, human IgG1, kappa)
heavy 1: not shown
heavy 2: not shown
light: B1 light
notes: as for B1
B19: GpH7-A5/GpH7-B3 variant N325_04F/GpL16-k0 (antibody, human IgG1, kappa)
heavy 1: not shown
heavy 2: not shown
light: B1 light
notes: as for B1
B20: GpH7-A5/GpH7-B3 variant L328_19Q/GpL16-k0 (antibody, human IgG1, kappa)
heavy 1: not shown
heavy 2: not shown
light: B1 light
notes: as for B1

Experiments:
FcγRIIa H = target: T1, FcγRIIa H (human, UniProt P12318 34-217); experiment: SPR (Biacore), relative binding vs GpH7-A5/GpH7-B3/GpL16-k0
T1 construct: extracellular domain; also called FcγRIIa type H; 2aH
T1 sequence (looked up): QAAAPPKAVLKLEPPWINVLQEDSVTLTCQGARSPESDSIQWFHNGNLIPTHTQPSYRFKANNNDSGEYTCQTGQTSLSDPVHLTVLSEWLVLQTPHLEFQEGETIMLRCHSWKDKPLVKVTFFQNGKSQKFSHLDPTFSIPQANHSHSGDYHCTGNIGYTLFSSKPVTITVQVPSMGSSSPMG
Description: (§1) The heterodimerized antibodies He Abs in which one of the H chains was introduced with an alteration were assayed for their binding activities to each activating FcγR and inhibitory FcγR according to the method described in Example 4. […] The activating FcγRs in FIGS. 26, 27, 28, and 29 are FcγRIa, FcγRIIa (R), FcγRIIa (H), and FcγRIIIa, respectively.
(§2) Analysis of interaction between objective antibody and the FcγR was carried out using Biacore T100 (GE Healthcare). HBS-EP+ (GE Healthcare) was used as the running buffer, and the measurement temperature was set to 25° C. Chips produced by immobilizing the antigen peptide by the amine coupling method to a Series S Sencor Chip CM5 (GE Healthcare), or alternatively, chips produced by allowing preliminarily biotinylated antigen peptides to interact with and immobilize onto a Series S Sensor Chip SA (certified) (GE Healthcare) were used. Antibodies of interest were captured onto an antigen peptide-immobilized chip, and allowed to interact to each FcγR diluted with running buffer. To regenerate and repeatedly use the chip, the antibodies captured on the chip were washed off by reacting 10 mM glycine-HCl, pH 1.5.

FcγRIIb = target: T2, FcγRIIb (human, UniProt P31994 43-217); experiment: as above
T2 construct: extracellular domain; also called 2b
T2 sequence (looked up): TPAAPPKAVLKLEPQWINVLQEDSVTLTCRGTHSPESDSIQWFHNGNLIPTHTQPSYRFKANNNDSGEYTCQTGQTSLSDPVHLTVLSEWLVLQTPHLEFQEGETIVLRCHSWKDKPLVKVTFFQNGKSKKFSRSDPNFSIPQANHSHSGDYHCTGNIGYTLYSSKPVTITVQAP
Description: as §1, §2

| Binder | He/Con_2aH (FcγRIIa H) | He/Con_2b (FcγRIIb) |
| --- | --- | --- |
| B1 | 71.7 % of control He Ab (=100) | 219 % of control He Ab (=100) |
| B2 | 93.9 % of control He Ab (=100) | 160 % of control He Ab (=100) |
| B3 | 47.2 % of control He Ab (=100) | 169 % of control He Ab (=100) |
| B4 | 52 % of control He Ab (=100) | 197 % of control He Ab (=100) |
| B5 | 56.8 % of control He Ab (=100) | 101 % of control He Ab (=100) |
| B6 | 79.7 % of control He Ab (=100) | 177 % of control He Ab (=100) |
| B7 | 48.2 % of control He Ab (=100) | 217 % of control He Ab (=100) |
| B8 | 77.4 % of control He Ab (=100) | 114 % of control He Ab (=100) |
| B9 | 53.1 % of control He Ab (=100) | 124 % of control He Ab (=100) |
| B10 | 84.7 % of control He Ab (=100) | 110 % of control He Ab (=100) |
| B11 | 90 % of control He Ab (=100) | 193 % of control He Ab (=100) |
| B12 | 38.1 % of control He Ab (=100) | 171 % of control He Ab (=100) |
| B13 | 87.1 % of control He Ab (=100) | 116 % of control He Ab (=100) |
| B14 | 45.2 % of control He Ab (=100) | 111 % of control He Ab (=100) |
| B15 | 58.5 % of control He Ab (=100) | 199 % of control He Ab (=100) |
| B16 | 55.5 % of control He Ab (=100) | 172 % of control He Ab (=100) |
| B17 | 82.5 % of control He Ab (=100) | 119 % of control He Ab (=100) |
| B18 | 85.1 % of control He Ab (=100) | 102 % of control He Ab (=100) |
| B19 | 33.4 % of control He Ab (=100) | 143 % of control He Ab (=100) |
| B20 | 86.8 % of control He Ab (=100) | 105 % of control He Ab (=100) |
